Reference: publication PMC4731314 (Cell reports, 2016)

Molecular target: the molecule itself
Experiment: AUC

Protein	binding result	stoichiometry N
full-length Imp2 purified from S. pombe (natural protein, UniProt Q10199 1-670, looked up) MSQQLSFNASSAKPDKSFSNYFWGANDEGYHALLSRFSDVKHINEELRSFYHERANIEEDYAKRMAKLSRTTFSSLETGCLKESVQVMKAEVDNMAKSHLQISQLLQDDVENAFTRYAASLKDKKKMIVSGIEKVHKDKLSKHQALVKAQDKYHYLCKKVNYYVSQQNMLFGKELEKNNAKLNKTQNAITASSSDYQSAVAAVRDSYARWTNEWRSTCDKLQDIEEERRHFLKSVMWTFTLLISRSCFNDDQACERIRKNLEQCSVSQDVLEFIDAKSTGTGIPQPPKFYDYYKGEVPDDSVELVQANFQRAQTKIENDNMPLNRPYVLSATARNESSFENTLPNTPSAIQSLTTVSSNSSQNGRSSPKKSFLSKFKLTSRPSTPNVGNTAPDALSSPRNDSPLTSAADEQMKHLSLQEEPKQNPTPAAPGAFPNSNTLPPRYNELGSLPSPNSVSFTEDSRPNVNTPSRRQQIQEEFGSVLQMENRAVSPVYDSRKNGSRSSFTLRKSRSPKRPSSSLSQNASRLPRSLTPGNLEPNYDFGVRVDPASGTAPTDDEPYTDRDSSFVDDTINTKATGNTSNRLSLPAYPTDGGDTSIDNPTSTDGQRILGYVSALYDYDAAIPEEISFRKGDTIAVLKLYEDGWWEGFVVGEDDHNRGQFPSNFVREIEV	binds	
Imp2(Dimer-Dimer-4A) purified from S. pombe (natural protein, UniProt Q10199 1-670, looked up) MSQQLSFNASSAKPDKSFSNYFWGANDEGYHALLSRFSDVKHINEELRSFYHERANIEEDYAKRMAKLSRTTFSSLETGCLKESVQVMKAEVDNMAASHLAISQLLQDAVENAFTAYAASLKDKKKMIVSGIEKVHKDKLSKHQALVKAQDKYHYLCKKVNYYVSQQNMLFGKELEKNNAKLNKTQNAITASSSDYQSAVAAVRDSYARWTNEWRSTCDKLQDIEEERRHFLKSVMWTFTLLISRSCFNDDQACERIRKNLEQCSVSQDVLEFIDAKSTGTGIPQPPKFYDYYKGEVPDDSVELVQANFQRAQTKIENDNMPLNRPYVLSATARNESSFENTLPNTPSAIQSLTTVSSNSSQNGRSSPKKSFLSKFKLTSRPSTPNVGNTAPDALSSPRNDSPLTSAADEQMKHLSLQEEPKQNPTPAAPGAFPNSNTLPPRYNELGSLPSPNSVSFTEDSRPNVNTPSRRQQIQEEFGSVLQMENRAVSPVYDSRKNGSRSSFTLRKSRSPKRPSSSLSQNASRLPRSLTPGNLEPNYDFGVRVDPASGTAPTDDEPYTDRDSSFVDDTINTKATGNTSNRLSLPAYPTDGGDTSIDNPTSTDGQRILGYVSALYDYDAAIPEEISFRKGDTIAVLKLYEDGWWEGFVVGEDDHNRGQFPSNFVREIEV		2
